The text below walks through data of patent US20190315842A1 (DUKE UNIVERSITY, published 2019).

In test [1] the target is systemic lupus erythematosus autoantigen SSA. The test is described as follows: AtheNA Multi-Lyte ANA, Ab at 50 ug/ml.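 Note: monoclonal antibodies probed against a nuclear autoantigen panel (SSA, SSB, Sm, RNP, Scl-70, Jo-1, dsDNA, CentB, histones), with anti-HIV 4E10 and palivizumab as control antibodies.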
Experimental: (§1) All 7 mAbs were tested against the AtheNA Multi-Lyte panel of autoantigens. The AtheNA Multi-Lyte ANA test for a panel of nuclear antigens: systemic lupus erythematosus autoantigens SSA and SSB, sphingomyelin (Sm), ribonucleoprotein (RNP), sclerosis autoantigen (Scl-70), histidine-tRNA ligase (Jo-1), double-stranded DNA (dsDNA), centromere B (CentB), and histones. 4e10 (Anti HIV, NIH AIDS Reagent Program) and SYNAGIS® (anti-RSV monoclonal antibody palivizumab; “Synagis”) were used a controls.
The target of test [2] is T1, Sm (sphingomyelin).
T1 construct: in an ANA panel of nuclear antigens Sm is usually the Smith ribonucleoprotein antigen; Kept, but see recheck
The test is described as follows: AtheNA Multi-Lyte ANA, Ab at 50 ug/ml.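 Note: monoclonal antibodies probed against a nuclear autoantigen panel (SSA, SSB, Sm, RNP, Scl-70, Jo-1, dsDNA, CentB, histones), with anti-HIV 4E10 and palivizumab as control antibodies.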
Experimental: as §1

The target in test [3] is ribonucleoprotein (RNP). As to the kind of experiment: AtheNA Multi-Lyte ANA, Ab at 50 ug/ml.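 Note: monoclonal antibodies probed against a nuclear autoantigen panel (SSA, SSB, Sm, RNP, Scl-70, Jo-1, dsDNA, CentB, histones), with anti-HIV 4E10 and palivizumab as control antibodies.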
Experimental: as §1
For test [4], the target named is T2, sclerosis autoantigen (Scl-70) (UniProt P11387 2-765, limits assumed).
T2 sequence (looked up): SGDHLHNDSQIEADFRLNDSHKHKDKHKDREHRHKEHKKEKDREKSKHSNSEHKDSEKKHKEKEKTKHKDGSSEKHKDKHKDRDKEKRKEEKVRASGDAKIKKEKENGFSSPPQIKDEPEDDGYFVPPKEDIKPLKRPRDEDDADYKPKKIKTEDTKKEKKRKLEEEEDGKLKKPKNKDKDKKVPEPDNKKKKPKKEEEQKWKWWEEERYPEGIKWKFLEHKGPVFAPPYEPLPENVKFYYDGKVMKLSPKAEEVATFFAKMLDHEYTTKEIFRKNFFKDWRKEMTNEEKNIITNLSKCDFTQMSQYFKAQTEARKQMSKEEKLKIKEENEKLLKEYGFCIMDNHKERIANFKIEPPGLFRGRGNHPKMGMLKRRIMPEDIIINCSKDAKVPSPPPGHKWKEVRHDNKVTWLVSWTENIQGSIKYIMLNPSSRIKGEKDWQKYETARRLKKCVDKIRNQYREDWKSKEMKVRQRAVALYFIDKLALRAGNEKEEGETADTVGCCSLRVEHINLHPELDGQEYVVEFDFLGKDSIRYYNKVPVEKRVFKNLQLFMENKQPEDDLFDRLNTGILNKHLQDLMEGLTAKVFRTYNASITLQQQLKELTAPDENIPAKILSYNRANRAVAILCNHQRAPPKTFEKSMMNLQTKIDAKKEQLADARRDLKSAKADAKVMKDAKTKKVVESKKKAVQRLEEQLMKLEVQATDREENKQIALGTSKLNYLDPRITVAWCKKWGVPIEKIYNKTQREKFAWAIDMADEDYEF
As to the kind of experiment: AtheNA Multi-Lyte ANA, Ab at 50 ug/ml.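 Note: monoclonal antibodies probed against a nuclear autoantigen panel (SSA, SSB, Sm, RNP, Scl-70, Jo-1, dsDNA, CentB, histones), with anti-HIV 4E10 and palivizumab as control antibodies.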
Experimental: as §1

In test [5] the target is T3, histidine-tRNA ligase (Jo-1) (UniProt P12081 2-509).
T3 sequence (looked up): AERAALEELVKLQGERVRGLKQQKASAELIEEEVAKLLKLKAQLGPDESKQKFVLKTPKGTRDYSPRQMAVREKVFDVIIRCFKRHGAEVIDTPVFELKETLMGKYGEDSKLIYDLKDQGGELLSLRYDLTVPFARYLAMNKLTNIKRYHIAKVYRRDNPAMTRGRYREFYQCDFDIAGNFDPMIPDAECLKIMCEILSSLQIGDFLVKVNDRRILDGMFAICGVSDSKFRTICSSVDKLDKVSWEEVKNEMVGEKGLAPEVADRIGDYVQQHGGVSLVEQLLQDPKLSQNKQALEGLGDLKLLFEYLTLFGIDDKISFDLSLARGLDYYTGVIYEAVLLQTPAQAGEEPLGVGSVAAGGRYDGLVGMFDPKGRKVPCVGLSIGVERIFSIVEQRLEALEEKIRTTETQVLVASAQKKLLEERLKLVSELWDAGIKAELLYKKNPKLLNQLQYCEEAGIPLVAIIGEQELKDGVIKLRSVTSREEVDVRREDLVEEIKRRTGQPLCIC
As to the kind of experiment: AtheNA Multi-Lyte ANA, Ab at 50 ug/ml.
Experimental: as §1

The target of test [6] is systemic lupus erythematosus autoantigen SSA. As to the kind of experiment: AtheNA Multi-Lyte ANA, Ab at 12.5 ug/ml.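 Note: monoclonal antibodies screened for binding to a panel of nuclear autoantigens (SSA, SSB, Sm, RNP, Scl-70, Jo-1, dsDNA, CentB, histones), with anti-HIV and anti-RSV antibodies as controls.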
Experimental: as §1
In test [7] the target is T1, Sm (sphingomyelin). As to the kind of experiment: AtheNA Multi-Lyte ANA, Ab at 12.5 ug/ml.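 Note: monoclonal antibodies screened for binding to a panel of nuclear autoantigens (SSA, SSB, Sm, RNP, Scl-70, Jo-1, dsDNA, CentB, histones), with anti-HIV and anti-RSV antibodies as controls.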
Experimental: as §1
The target of test [8] is ribonucleoprotein (RNP). As to the kind of experiment: AtheNA Multi-Lyte ANA, Ab at 12.5 ug/ml.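 Note: monoclonal antibodies screened for binding to a panel of nuclear autoantigens (SSA, SSB, Sm, RNP, Scl-70, Jo-1, dsDNA, CentB, histones), with anti-HIV and anti-RSV antibodies as controls.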
Experimental: as §1
Test [9] has as its target T2, sclerosis autoantigen (Scl-70). The test is described as follows: AtheNA Multi-Lyte ANA, Ab at 12.5 ug/ml.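 Note: monoclonal antibodies screened for binding to a panel of nuclear autoantigens (SSA, SSB, Sm, RNP, Scl-70, Jo-1, dsDNA, CentB, histones), with anti-HIV and anti-RSV antibodies as controls.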
Experimental: as §1
In test [10] the target is T3, histidine-tRNA ligase (Jo-1). As to the kind of experiment: AtheNA Multi-Lyte ANA, Ab at 12.5 ug/ml.
Experimental: as §1
Test [11] addresses systemic lupus erythematosus autoantigen SSA. The test is described as follows: AtheNA Multi-Lyte ANA, Ab at 6.25 ug/ml.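 Note: monoclonal antibodies screened for reactivity against a panel of nuclear autoantigens, with an anti-HIV and an anti-RSV monoclonal antibody serving as controls.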
Experimental: as §1
For test [12], the target named is T1, Sm (sphingomyelin). As to the kind of experiment: AtheNA Multi-Lyte ANA, Ab at 6.25 ug/ml.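 Note: monoclonal antibodies screened for reactivity against a panel of nuclear autoantigens, with an anti-HIV and an anti-RSV monoclonal antibody serving as controls.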
Experimental: as §1
For test [13], the target named is ribonucleoprotein (RNP). The test is described as follows: AtheNA Multi-Lyte ANA, Ab at 6.25 ug/ml.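 Note: monoclonal antibodies screened for reactivity against a panel of nuclear autoantigens, with an anti-HIV and an anti-RSV monoclonal antibody serving as controls.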
Experimental: as §1
In test [14] the target is T2, sclerosis autoantigen (Scl-70). The test is described as follows: AtheNA Multi-Lyte ANA, Ab at 6.25 ug/ml.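 Note: monoclonal antibodies screened for reactivity against a panel of nuclear autoantigens, with an anti-HIV and an anti-RSV monoclonal antibody serving as controls.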
Experimental: as §1
For test [15], the target named is T3, histidine-tRNA ligase (Jo-1). As to the kind of experiment: AtheNA Multi-Lyte ANA, Ab at 6.25 ug/ml.
Experimental: as §1
Test [16] has as its target T4, GPPPPIDNGDITSFP(GGGK-biotin).
T4 construct: also called biotinylated 15-mer peptide; biotinylated 19-mer
T4 peptide: GPPPPIDNGDITSFPGGGK(Biotin)
The test is described as follows: ELISA: biotinylated peptide captured on immobilized Neutravidin, antibody at 0.5 µg/ml, anti-human IgG-HRP/ABTS, OD 405 nm.
Experimental: After washing, recombinant human monoclonal antibodies were added to the wells at 0.5 μg/ml and incubated for 2 hr at room temperature. The wells were washed and incubated with goat anti-human IgG-gamma horseradish peroxidase conjugate at a 1:1000 dilution. After further washing, bound antibody was detected with 2,2′-azino-bis (3-ethylbenzthiazoline-6-sulfonic acid)(ABTS)/hydrogen peroxide and the absorbance measured at 405 nm.

For test [17], the target named is T5, systemic lupus erythematosus autoantigen SSB (UniProt P05455 1-408, limits assumed).
T5 sequence (looked up): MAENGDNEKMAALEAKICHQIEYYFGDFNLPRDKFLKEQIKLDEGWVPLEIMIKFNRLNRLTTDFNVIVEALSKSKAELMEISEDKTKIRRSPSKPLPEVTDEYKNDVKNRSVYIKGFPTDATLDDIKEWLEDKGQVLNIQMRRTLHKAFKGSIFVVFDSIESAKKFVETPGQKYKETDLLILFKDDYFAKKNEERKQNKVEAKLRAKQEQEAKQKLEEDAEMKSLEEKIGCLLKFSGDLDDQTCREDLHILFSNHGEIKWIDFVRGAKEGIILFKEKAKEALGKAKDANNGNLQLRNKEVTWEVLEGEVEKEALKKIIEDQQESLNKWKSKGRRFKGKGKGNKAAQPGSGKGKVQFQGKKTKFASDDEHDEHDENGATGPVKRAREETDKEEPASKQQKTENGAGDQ
As to the kind of experiment: AtheNA Multi-Lyte ANA, Ab at 50 ug/ml.
Experimental: as §1

Where no end group is shown, it is not given here. The star is where a group is joined. Biotin = O=C1N[C@H]2[C@H](CS[C@H]2CCCCC(=O)*)N1

B1: Ab7957/293i (antibody, IgG1, V domains shown)
VH: LVESGGGVVPPGKSLRLSCAASGFTFSLYGIHWVRQAPGKGLEWVAVISYDGNTKYYTDSVKGRFTISRDNAKNTIYLQMNSLRLDDTAVYYCAKGAANSATFDFWGRGTMVTVSS
VL: MTQSPDSLTLSLGERATINCRSSRTVLYRSNNKNYLAWYQHKPGQPPKLLMSWASTRETGVPDRFSGSGSGTHFTLTITSLQPEDVAVYYCQQYYSPPWTFGQGTKVEIR
notes: Recombinant human antibody with IgG1 heavy chain backbone and kappa light chain constant; they begin at LVESGGG and MTQSP; also called Ab7957i; mAb 7957
B1: the AtheNA signal in test [1] worked out at 11; with Sm (sphingomyelin) [2] it was 4; with ribonucleoprotein (RNP) [3] it was 6; in test [4], 2; in test [5], 5; in [6], 9. Moreover, the AtheNA signal amounted to 1 with Sm (sphingomyelin) [7]; 3 with ribonucleoprotein (RNP) [8]; 2 in test [9]; 3 in test [10]; 9 in [11]; 3 with Sm (sphingomyelin) [12]. The AtheNA signal with ribonucleoprotein (RNP) [13] was determined as 3; in [14] it was 2; in [15] it was 3. In test [16], the binding result was “binds”.

B2: Ab7968 (antibody, IgG1, V domains shown)
VH: LVESGGGVVQPGRSLRLSCAASGFTFSRYGMHWVRQAPGKGLEWVAVMSYDGSTKYYADSVKGRFAISRDNPKNTLFLQMNSLRPDDTAVYYCAKGGAAAAVMDVWGKGTTVTVSS
VL: MTQSPDSLTVSLGERATISCKSSQRLLYSSNNKNYLAWYQQKPGQPPKLLMYWASTRESGVPDRFSGSGSGTDFSLTISSLQAEDVAVYYCQQYYNPPWTFGQGTKVEVK
notes: Recombinant human antibody with IgG1 heavy chain backbone and kappa light chain constant; they begin at LVESGGG and MTQSP; also called mAb 7968; mAb7968
With B2, the AtheNA signal in test [1] amounted to 7; in test [17], 9; with Sm (sphingomyelin) [2], 7; with ribonucleoprotein (RNP) [3] it was 10; in [4], 4; in test [5] it was 7. In addition, the AtheNA signal amounted to 4 in [6]; 7 in the test with Sm (sphingomyelin) [7]; 7 in the test with ribonucleoprotein (RNP) [8]; 3 in [9]; 2 in test [10]; 4 in [11]. Further, the AtheNA signal with Sm (sphingomyelin) [12] was 4; in the test with ribonucleoprotein (RNP) [13], 7; in test [14], 3; in test [15], 4. Further, in test [16], the binding result is on record as “binds”.

B3: Ab7962/293i (antibody, V domains shown)
VH: LVESGGGLVQPGGSLRLSCAASGFTFSSYEMNWVRQAPGKGLEWVSYISSSGSTIYYADSVKGRFTISRDNAKNSLYLQMNSLRAEDTAVYYCARVEQLAPSPYMDVWGKGTTVTVSS
VL: MTQSLDSLTVSLGERATINCKSSQSLLYTSNNKNYLAWYQQKSGQPPKLLIYWASIRDSGVPDRFSGSGSATDFTLTINNLQAEDVAVYFCQQYYKTPLTFGGGTKVEVR
notes: Recombinant human antibody with IgG1 heavy chain backbone and kappa light chain constant (IgM in the donor B cell); they begin at LVESGGG and MTQSL; also called clone 27; pH007962/pK005996
As for B3, the AtheNA signal in test [1] was determined as 2; in test [17] it was 8; with Sm (sphingomyelin) [2], 4; with ribonucleoprotein (RNP) [3], 5; in [4], 2; in test [5] it was 4. Also, the AtheNA signal in test [6] was determined as 2; with Sm (sphingomyelin) [7], 3; with ribonucleoprotein (RNP) [8], 3; in test [9], 2; in test [10] it was 5; in test [11], 2. The AtheNA signal amounted to 4 in the test with Sm (sphingomyelin) [12], 2 with ribonucleoprotein (RNP) [13], 1 in test [14] and 4 in [15].
